The target in assay [1] is T1, human calcitonin receptor (human, UniProt P30988 25-474).
T1 construct: whole, on cells; Membranes from stably transfected BHK cells; also called hCTR; hCT
T1 sequence (looked up): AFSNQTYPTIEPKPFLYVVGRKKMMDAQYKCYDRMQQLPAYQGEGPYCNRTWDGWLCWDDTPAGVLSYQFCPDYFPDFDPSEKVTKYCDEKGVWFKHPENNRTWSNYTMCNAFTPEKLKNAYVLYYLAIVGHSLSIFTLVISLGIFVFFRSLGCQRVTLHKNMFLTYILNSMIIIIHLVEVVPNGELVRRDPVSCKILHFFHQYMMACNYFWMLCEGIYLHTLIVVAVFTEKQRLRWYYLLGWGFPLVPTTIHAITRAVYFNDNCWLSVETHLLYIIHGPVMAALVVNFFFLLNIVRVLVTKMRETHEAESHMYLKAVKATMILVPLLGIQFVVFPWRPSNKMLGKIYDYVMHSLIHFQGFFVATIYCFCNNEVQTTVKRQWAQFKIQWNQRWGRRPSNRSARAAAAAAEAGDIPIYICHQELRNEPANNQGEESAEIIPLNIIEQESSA
As to the kind of experiment: ratio of IC50 on human calcitonin receptor to IC50 on human amylin receptor. On the procedure:
The resulting pellet was resuspended, homogenized and centrifuged (20.000 rpm, 15 min) in a buffer containing 20 mM Na-HEPES and 0.1 mM EDTA (pH 7.4, buffer 2). The resulting pellet was resuspended in buffer 2 and protein concentration was measured (BCA protein Assay, Pierce). The homogenate was kept cold during the whole procedure. The membranes were kept at −80° C. until use. The assay was performed in a 384 well Optiplate (PerkinElmer) in a total volume of 40 ul. Membranes were mixed with SPA beads. Final concentration of membranes 35 ng/μL final and SPA beads was 0.05 mg/well. Test-compounds were dissolved in DMSO and further diluted in assay buffer (50 mM Hepes, pH 7.4, 1 mM CaCl2, 5 mM MgCl₂, 0.1% OA and 0.02% Tween20). […] The final mixture was incubated with shaking at 400 rpm for 120 min at 25° C. prior to centrifugation (1500 rpm, 10 min). Samples were analyzed on TopCounter™ (Packard). The IC₅₀ was calculated using (one site binding competition analysis) GraphPad Prism5 as a measure of receptor affinity.
Membranes were prepared in the following way; the cells were rinsed with PBS and incubated with Versene for approximately 5 min before harvesting. The cells were flushed with PBS and the cell-suspension was centrifuged for 5 min at 1000 rpm. Cells were homogenized (Ultrathurrax) in a buffer containing 20 mM Na-HEPES and 10 mM EDTA (pH 7.4) and centrifuged at 20.000 rpm for 15 min. The resulting pellet was resuspended, homogenized and centrifuged (20.000 rpm, 15 min) in a buffer containing 20 mM Na-HEPES and 0.1 mM EDTA (pH 7.4, buffer 2). The resulting pellet was resuspended in buffer 2 and protein concentration was measured (BCA protein Assay, Pierce). The homogenate was kept cold during the whole procedure. The membranes were kept at −80° C. until use. Assay was performed in a 384 well Optiplate (PerkinElmer) in a total volume of 40 ul. Membranes were mixed with SPA beads.

For assay [2], the target named is T2, rat amylin receptor (rat calcitonin receptor + rat RAMP 3) (rat, UniProt P32214 25-516; Q9JJ73 23-147).
T2 construct: whole, on cells; Membranes prepared from transiently transfected BHK tk'ts 13 cells; also called rAmylin-R; rat amylin 3(a) receptor
T2 sequence (looked up) 1: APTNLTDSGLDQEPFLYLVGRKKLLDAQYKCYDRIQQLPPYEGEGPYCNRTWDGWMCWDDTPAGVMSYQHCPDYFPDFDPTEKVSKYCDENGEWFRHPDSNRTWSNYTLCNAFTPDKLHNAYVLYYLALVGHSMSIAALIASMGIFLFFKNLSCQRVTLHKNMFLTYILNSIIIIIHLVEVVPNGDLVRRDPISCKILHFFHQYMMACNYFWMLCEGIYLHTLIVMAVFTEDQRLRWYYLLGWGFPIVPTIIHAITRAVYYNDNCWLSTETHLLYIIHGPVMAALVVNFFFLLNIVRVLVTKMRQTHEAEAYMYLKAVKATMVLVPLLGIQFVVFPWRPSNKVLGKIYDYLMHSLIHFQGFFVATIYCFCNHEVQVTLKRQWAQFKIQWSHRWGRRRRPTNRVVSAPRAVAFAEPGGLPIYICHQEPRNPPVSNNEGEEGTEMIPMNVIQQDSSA
T2 sequence (looked up) 2: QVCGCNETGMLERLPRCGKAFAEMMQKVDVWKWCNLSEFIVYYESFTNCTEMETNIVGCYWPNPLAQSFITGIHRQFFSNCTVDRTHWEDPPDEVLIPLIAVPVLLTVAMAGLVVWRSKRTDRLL
As to the kind of experiment: SPA competition vs 125I-rat amylin, membranes (Assay VI).

Assay [3] deals with T3, rat calcitonin receptor (rat, UniProt P32214 25-516).
T3 construct: whole, on cells; Membranes prepared from transiently transfected BHK tk'ts 13 cells; also called rCTR; rat calcitonin (a) receptor
T3 sequence (looked up): T2 sequence (looked up) 1
The assay is described as follows: SPA competition vs 125I-calcitonin, membranes (Assay VIII).

The target in assay [4] is T3, rat calcitonin receptor. The assay is described as follows: ratio of IC50 on rat calcitonin receptor to IC50 on rat amylin receptor.
The target of assay [5] is T4, rat amylin receptor (rat calcitonin receptor + rat RAMP 3) (rat, UniProt P32214 25-516; Q9JJ73 23-147).
T4 construct: whole, on cells; Used as membranes prepared from the transfected cells; also called rAmylin-R; rat amylin 3(a) receptor
T4 sequence (looked up) 1: T2 sequence (looked up) 1
T4 sequence (looked up) 2: T2 sequence (looked up) 2
The assay is described as follows: SPA competition with 125I-rat amylin, membranes of BHK cells with rat calcitonin receptor + rat RAMP3 (Assay VI).

Assay [6] addresses T5, rat calcitonin receptor (rat, UniProt P32214 25-516).
T5 construct: whole, on cells; Used as membranes prepared from the transfected cells; also called rCTR; rat calcitonin (a) receptor
T5 sequence (looked up): T2 sequence (looked up) 1
The assay is described as follows: SPA competition with 125I-calcitonin, membranes of BHK cells with rat calcitonin receptor (Assay VIII).

The target in assay [7] is T6, human calcitonin receptor (human, UniProt P30988 25-474).
T6 sequence (looked up): T1 sequence (looked up)
The assay is described as follows: cell-based or functional assay.

The target of assay [8] is T7, human amylin receptor (amylin 3(a) receptor: human calcitonin receptor plus RAMP-3) (human, UniProt P30988 25-474; O60896 24-148).
T7 sequence (looked up) 1: T1 sequence (looked up)
T7 sequence (looked up) 2: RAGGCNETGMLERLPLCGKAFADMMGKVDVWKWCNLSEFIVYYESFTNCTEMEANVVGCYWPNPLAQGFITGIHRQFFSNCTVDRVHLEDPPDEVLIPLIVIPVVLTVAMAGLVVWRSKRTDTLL
As to the kind of experiment: cell-based or functional assay.

Assay [9] concerns the target T7, human amylin receptor (amylin 3(a) …). The assay is described as follows: SPA competition binding, displacement of 125I-rat amylin, membranes of BHK amylin 3(a)/CRE-luc cells. The essentials:
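Membranes from BHK Amylin 3(a)/CRE-luc cells (35 ng/μL final) were mixed with SPA beads and test compounds in 50 mM Hepes pH 7.4 with 1 mM CaCl2, 5 mM MgCl₂, 0.1% OA and 0.02% Tween20. Incubation ran 120 min at 25° C with shaking; IC₅₀ came from one-site competition fitting.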
(In a radioligand displacement assay an active substance lowers the binding of a labelled ligand.)

Four molecules from patent US20140087995A1 (published 2014) can be followed below.

Numbered stars: 1 amine (or outer) side, 2 acyl side, 3 side chain; on linkers, the order of the positions; unused ones are H or OH. Bridge positions count the residues as written; N and C are the ends. Side chains are listed from the residue outwards. Ends that are not written are not given here. * marks the point of attachment. C20 diacid = O=C(O)CCCCCCCCCCCCCCCCCCC(=O)*; γGlu = O=C(O)[C@H](CCC(=O)[*:2])N[*:1]; AEEA = NCCOCCOCC(=O)O

As to K([γGlu-γGlu-C20 diacid])CNTATCATQRLAEFLRHSSPNFGAIPSSTNVGPETY-NH2 (disulfide 2-7 (inferred)), in [1], the “Ratio hCT/hAmylin binding” value is 17.6. In addition, the IC50 (as a rule, the point on the concentration scale where inhibition reaches its midpoint) is 0.182 nM in [2] and 16.1 nM with rat calcitonin receptor [3]. For the same molecule, the “Ratio rCT/rAmylin binding” value in the assay with rat calcitonin receptor [4] was determined as 88.5.

B1: N^ε1-[2-[2-[2-[[(4S)-4-carboxy-4-(19-carboxynonadecanoylamino)butanoyl]amino]ethoxy]ethoxy]acetyl]-[Arg17,Pro21,Pro27,Arg35]-h-amylin (peptide)
peptide: K([AEEA-γGlu-C20 diacid])CNTATCATQRLANFLRHSSPNFGAIPSSTNVGSRTY-NH2
modifications: disulfide 2-7; N-terminus assumed
SMILES: CC[C@H](C)[C@H](NC(=O)[C@H](C)NC(=O)CNC(=O)[C@H](Cc1ccccc1)NC(=O)[C@H](CC(N)=O)NC(=O)[C@@H]1CCCN1C(=O)[C@H](CO)NC(=O)[C@H](CO)NC(=O)[C@H](Cc1c[nH]cn1)NC(=O)[C@H](CCCNC(=N)N)NC(=O)[C@H](CC(C)C)NC(=O)[C@H](Cc1ccccc1)NC(=O)[C@H](CC(N)=O)NC(=O)[C@H](C)NC(=O)[C@H](CC(C)C)NC(=O)[C@H](CCCNC(=N)N)NC(=O)[C@H](CCC(N)=O)NC(=O)[C@@H](NC(=O)[C@H](C)NC(=O)[C@@H]1CSSC[C@H](NC(=O)[C@@H](N)CCCCNC(=O)COCCOCCNC(=O)CC[C@H](NC(=O)CCCCCCCCCCCCCCCCCCC(=O)O)C(=O)O)C(=O)N[C@@H](CC(N)=O)C(=O)N[C@@H]([C@@H](C)O)C(=O)N[C@@H](C)C(=O)N[C@@H]([C@@H](C)O)C(=O)N1)[C@@H](C)O)C(=O)N1CCC[C@H]1C(=O)N[C@@H](CO)C(=O)N[C@@H](CO)C(=O)N[C@H](C(=O)N[C@@H](CC(N)=O)C(=O)N[C@H](C(=O)NCC(=O)N[C@@H](CO)C(=O)N[C@@H](CCCNC(=N)N)C(=O)N[C@H](C(=O)N[C@@H](Cc1ccc(O)cc1)C(N)=O)[C@@H](C)O)C(C)C)[C@@H](C)O
notes: Derivative of human amylin; also called compound 38
Consider B1, for which the IC50 came to 0.383 nM in [5] and 38 nM with rat calcitonin receptor [6].

B2: N^ε-[2-[2-[2-[[(4S)-4-carboxy-4-(19-carboxynonadecanoylamino)butanoyl]amino]ethoxy]ethoxy]acetyl]Lys[Arg1,Arg17,Pro21,Pro27,His35]-h-amylin (peptide)
peptide: K([AEEA-γGlu-C20 diacid])RCNTATCATQRLANFLRHSSPNFGAIPSSTNVGSHTY-NH2
modifications: disulfide 3-8; N-terminus assumed
SMILES: CC[C@H](C)[C@H](NC(=O)[C@H](C)NC(=O)CNC(=O)[C@H](Cc1ccccc1)NC(=O)[C@H](CC(N)=O)NC(=O)[C@@H]1CCCN1C(=O)[C@H](CO)NC(=O)[C@H](CO)NC(=O)[C@H](Cc1c[nH]cn1)NC(=O)[C@H](CCCNC(=N)N)NC(=O)[C@H](CC(C)C)NC(=O)[C@H](Cc1ccccc1)NC(=O)[C@H](CC(N)=O)NC(=O)[C@H](C)NC(=O)[C@H](CC(C)C)NC(=O)[C@H](CCCNC(=N)N)NC(=O)[C@H](CCC(N)=O)NC(=O)[C@@H](NC(=O)[C@H](C)NC(=O)[C@@H]1CSSC[C@H](NC(=O)[C@H](CCCNC(=N)N)NC(=O)[C@@H](N)CCCCNC(=O)COCCOCCNC(=O)CC[C@H](NC(=O)CCCCCCCCCCCCCCCCCCC(=O)O)C(=O)O)C(=O)N[C@@H](CC(N)=O)C(=O)N[C@@H]([C@@H](C)O)C(=O)N[C@@H](C)C(=O)N[C@@H]([C@@H](C)O)C(=O)N1)[C@@H](C)O)C(=O)N1CCC[C@H]1C(=O)N[C@@H](CO)C(=O)N[C@@H](CO)C(=O)N[C@H](C(=O)N[C@@H](CC(N)=O)C(=O)N[C@H](C(=O)NCC(=O)N[C@@H](CO)C(=O)N[C@@H](Cc1c[nH]cn1)C(=O)N[C@H](C(=O)N[C@@H](Cc1ccc(O)cc1)C(N)=O)[C@@H](C)O)C(C)C)[C@@H](C)O
notes: also called compound 45
As to B2, the “hCTR funct. EC50 (pM)” value in assay [7] amounted to 10100 pM. In assay [8], the “Ratio hCT/hAmylin funct.” value turned out to be 17 and the “hAmylin-R funct. EC50 (pM)” value is 594 pM. Also, the IC50 in assay [9] turned out to be 0.552 nM.

B3: N^-1-[(4S)-4-carboxy-4-(19-carboxynonadecanoylamino)butanoyl]-Gly[Arg1,Arg17,Pro21,Pro27]-h-amylin (peptide)
peptide: {C20 diacid-γGlu}-GRCNTATCATQRLANFLRHSSPNFGAIPSSTNVGSNTY-NH2
modifications: disulfide 3-8
SMILES: CC[C@H](C)[C@H](NC(=O)[C@H](C)NC(=O)CNC(=O)[C@H](Cc1ccccc1)NC(=O)[C@H](CC(N)=O)NC(=O)[C@@H]1CCCN1C(=O)[C@H](CO)NC(=O)[C@H](CO)NC(=O)[C@H](Cc1c[nH]cn1)NC(=O)[C@H](CCCNC(=N)N)NC(=O)[C@H](CC(C)C)NC(=O)[C@H](Cc1ccccc1)NC(=O)[C@H](CC(N)=O)NC(=O)[C@H](C)NC(=O)[C@H](CC(C)C)NC(=O)[C@H](CCCNC(=N)N)NC(=O)[C@H](CCC(N)=O)NC(=O)[C@@H](NC(=O)[C@H](C)NC(=O)[C@@H]1CSSC[C@H](NC(=O)[C@H](CCCNC(=N)N)NC(=O)CNC(=O)CC[C@H](NC(=O)CCCCCCCCCCCCCCCCCCC(=O)O)C(=O)O)C(=O)N[C@@H](CC(N)=O)C(=O)N[C@@H]([C@@H](C)O)C(=O)N[C@@H](C)C(=O)N[C@@H]([C@@H](C)O)C(=O)N1)[C@@H](C)O)C(=O)N1CCC[C@H]1C(=O)N[C@@H](CO)C(=O)N[C@@H](CO)C(=O)N[C@H](C(=O)N[C@@H](CC(N)=O)C(=O)N[C@H](C(=O)NCC(=O)N[C@@H](CO)C(=O)N[C@@H](CC(N)=O)C(=O)N[C@H](C(=O)N[C@@H](Cc1ccc(O)cc1)C(N)=O)[C@@H](C)O)C(C)C)[C@@H](C)O
notes: also called compound 46
On to B3, for which the “hCTR funct. EC50 (pM)” value in assay [7] came out at 899 pM. In assay [8], the “Ratio hCT/hAmylin funct.” value was 10.2 and the “hAmylin-R funct. EC50 (pM)” value was found to be 88 pM. For the same molecule, in assay [9], the IC50 stood at 0.195 nM.
